Legend:
[1] = biological target: 43S preinitiation complex reconstituted from purified components (UniProt P62841); assay: co-sedimentation
40S ribosomal subunit = 40S ribosomal subunit (UniProt P62841); assay: co-sedimentation

fold reduction of bound SRP9/14 against the scAluY^A RNP sample [1]: 3 fold | percent of SRP9/14 comigrating with the complex [1]: 15% | share of h9/14 comigrating with the subunit (fraction of h9/14) (40S ribosomal subunit): 0.33 | stoichiometry N (binding sites on 40S) (40S ribosomal subunit): > 1
Substance: human SRP9/14 protein dimer (from UniProt P49458 1-86; P37108 1-136) (complex)

Source: article PMC4357698
